Target: CCR5 on mouse periosteal skeletal stem cells / mouse cells in vivo (mouse) (UniProt P51682)
Assay: cell-based or functional assay

UniProt P51682, sequence (P51682 whole entry): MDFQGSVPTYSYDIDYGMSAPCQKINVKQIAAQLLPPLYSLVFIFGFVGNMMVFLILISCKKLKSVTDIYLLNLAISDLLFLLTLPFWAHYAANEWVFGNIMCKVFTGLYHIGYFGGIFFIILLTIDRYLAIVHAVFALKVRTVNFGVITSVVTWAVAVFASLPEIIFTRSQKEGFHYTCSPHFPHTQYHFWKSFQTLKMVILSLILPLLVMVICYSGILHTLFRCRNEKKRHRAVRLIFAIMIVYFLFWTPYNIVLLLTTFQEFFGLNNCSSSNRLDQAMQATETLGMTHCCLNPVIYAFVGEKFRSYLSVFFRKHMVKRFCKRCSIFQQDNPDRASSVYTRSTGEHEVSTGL

- average in vivo migration speed of Mx1+aSMA+ P-SSCs under CCL5 administration: 57 µm/h
Substance: CCL5 (ligand)

Source: US20220096600A1
